In publication PMC3040440 (Journal of immunology (Baltimore, Md. : 1950), 2010):

Target: hCD40-P227A, gain-of-function polymorphism of the human CD40 receptor (human, UniProt P25942 21-277, P227A)
Assay: co-IP

Chain of hCD40-P227A, gain-of-function polymorphism of the human CD40 receptor (P25942 21-277 P227A): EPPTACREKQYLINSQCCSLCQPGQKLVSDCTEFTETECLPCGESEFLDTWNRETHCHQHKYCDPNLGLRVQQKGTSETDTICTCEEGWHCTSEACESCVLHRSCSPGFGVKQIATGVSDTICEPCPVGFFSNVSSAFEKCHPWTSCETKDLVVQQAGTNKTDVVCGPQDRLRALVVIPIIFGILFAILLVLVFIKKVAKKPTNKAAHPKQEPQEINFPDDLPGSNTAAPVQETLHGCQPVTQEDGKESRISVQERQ

Binder	fold bound relative to Wt-hCD40
TNF receptor associated factor 5 (TRAF5) (natural protein, mouse (endogenous in CH12.LX), UniProt P70191 1-558, looked up) MAHSEEQAAVPCAFIRQNSGNSISLDFEPDTEYQFVEQLEERYKCAFCHSVLHNPHQTGCGHRFCQQCIRSLRELNSVPICPVDKEVIKPQEVFKDNCCKREVLNLHVYCKNAPGCNARIILGRFQDHLQHCSFQAVPCPNESCREAMLRKDVKEHLSAYCRFREEKCLYCKRDIVVTNLQDHEENSCPAYPVSCPNRCVQTIPRARVNEHLTVCPEAEQDCPFKHYGCTVKGKRGNLLEHERAALQDHMLLVLEKNYQLEQRISDLYQSLEQKESKIQQLAETVKKFEKELKQFTQMFGRNGTFLSNVQALTSHTDKSAWLEAQVRQLLQIVNQQPSRLDLRSLVDAVDSVKQRITQLEASDQRLVLLEGETSKHDAHINIHKAQLNKNEERFKQLEGACYSGKLIWKVTDYRVKKREAVEGHTVSVFSQPFYTSRCGYRLCARAYLNGDGSGKGTHLSLYFVVMRGEFDSLLQWPFRQRVTLMLLDQSGKKNHIVETFKADPNSSSFKRPDGEMNIASGCPRFVSHSTLENSKNTYIKDDTLFLKVAVDLTDLEDL	2 fold
TNF receptor associated factor 3 (TRAF3) (natural protein, mouse (endogenous in CH12.LX), UniProt Q60803 1-567, looked up) MESSKKMDAAGTLQPNPPLKLQPDRGAGSVLVPEQGGYKEKFVKTVEDKYKCEKCRLVLCNPKQTECGHRFCESCMAALLSSSSPKCTACQESIIKDKVFKDNCCKREILALQVYCRNEGRGCAEQLTLGHLLVHLKNECQFEELPCLRADCKEKVLRKDLRDHVEKACKYREATCSHCKSQVPMIKLQKHEDTDCPCVVVSCPHKCSVQTLLRSELSAHLSECVNAPSTCSFKRYGCVFQGTNQQIKAHEASSAVQHVNLLKEWSNSLEKKVSLLQNESVEKNKSIQSLHNQICSFEIEIERQKEMLRNNESKILHLQRVIDSQAEKLKELDKEIRPFRQNWEEADSMKSSVESLQNRVTELESVDKSAGQAARNTGLLESQLSRHDQMLSVHDIRLADMDLRFQVLETASYNGVLIWKIRDYKRRKQEAVMGKTLSLYSQPFYTGYFGYKMCARVYLNGDGMGKGTHLSLFFVIMRGEYDALLPWPFKQKVTLMLMDQGSSRRHLGDAFKPDPNSSSFKKPTGEMNIASGCPVFVAQTVLENGTYIKDDTIFIKVIVDTSDLPDP	2 fold
